According to US20260049138A1 (Chugai, published 2026):
Numbering of substitutions follows the chain as printed.

B1: GLS3000 S27aG one-arm antibody (antibody, human IgG1, kappa, L234A L235A, N297A, name in Kabat numbering)
heavy: QVQLVESGGGVVQPGRSLRLSCAASGFTFSNAWMHWVRQAPGKGLEWVAQIKAKSNNYATYYAESVKGRFTISRDDSKNSLYLQMNSLKTEDTAVYYCRYVHYGAYYGVDAWGQGTTVTVSSASTKGPSVFPLAPSSKSTSGGTAALGCLVKDYFPEPVTVSWNSGALTSGVHTFPAVLQSSGLYSLSSVVTVPSSSLGTQTYICNVNHKPSNTKVDKKVEPKSCDKTHTCPPCPAPEAAGGPSVFLFPPKPKDTLMISRTPEVTCVVVDVSHEDPEVKFNWYVDGVEVHNAKTKPREEQYASTYRVVSVLTVLHQDWLNGKEYKCKVSNKALPAPIEKTISKAKGQPREPQVYTLPPSRCELTKNQVSLSCAVKGFYPSDIAVEWESNGQPENNYKTTPPVLDSDGSFFLVSKLTVDKSRWQQGNVFSCSVMHEALHNHYTQKSLSLSPDYKDDDDK
chain: EPKSSDKTHTCPPCPAPELLGGPSVFLFPPKPKDTLMISRTPEVTCVVVDVSHEDPEVKFNWYVDGVEVHNAKTKPREEQYNSTYRVVSVLTVLHQDWLNGKEYKCKVSNKALPAPIEKTISKAKGQPREPQVCTLPPSRDELTKNQVSLWCLVKGFYPSDIAVEWESNGQPENNYKTTPPVLDSDGSFFLYSKLTVDKSRWQQGNVFSCSVMHEALHNRYTQKSLSLSP
light: DIVMTQSPLSLPVTPGEPASISCRSSQGLVHSNRNTYLHWYQQKPGQAPRLLIYKVSNRFSGVPDRFSGSGSGTDFTLKISRVEAEDVGVYYCGQGTQVPYTFGQGTKLEIKRTVAAPSVFIFPPSDEQLKSGTASVVCLLNNFYPREAKVQWKVDNALQSGNSQESVTEQDSKDSTYSLSSTLTLSKADYEKHKVYACEVTHQGLSSPVTKSFNRGEC
B2: GLS3000 S27aI one-arm antibody (antibody, human IgG1, kappa, L234A L235A, N297A, name in Kabat numbering)
heavy: B1 heavy
chain: B1 chain
light: B1 light with G28I
B3: GLS3000 S27aN one-arm antibody (antibody, human IgG1, kappa, L234A L235A, N297A, name in Kabat numbering)
heavy: B1 heavy
chain: B1 chain
light: B1 light with G28N
B4: GLS3000 S27aP one-arm antibody (antibody, human IgG1, kappa, L234A L235A, N297A, name in Kabat numbering)
heavy: B1 heavy
chain: B1 chain
light: B1 light with G28P
B5: GLS3000 S27aY one-arm antibody (antibody, human IgG1, kappa, L234A L235A, N297A, name in Kabat numbering)
heavy: B1 heavy
chain: B1 chain
light: B1 light with G28Y
B6: GLS3000 S27eA one-arm antibody (antibody, human IgG1, kappa, L234A L235A, N297A, name in Kabat numbering)
heavy: B1 heavy
chain: B1 chain
light: B1 light with G28S, S32A
B7: GLS3000 S27eD one-arm antibody (antibody, human IgG1, kappa, L234A L235A, N297A, name in Kabat numbering)
heavy: B1 heavy
chain: B1 chain
light: B1 light with G28S, S32D
B8: GLS3000 S27eE one-arm antibody (antibody, human IgG1, kappa, L234A L235A, N297A, name in Kabat numbering)
heavy: B1 heavy
chain: B1 chain
light: B1 light with G28S, S32E
B9: GLS3000 S27eF one-arm antibody (antibody, human IgG1, kappa, L234A L235A, N297A, name in Kabat numbering)
heavy: B1 heavy
chain: B1 chain
light: B1 light with G28S, S32F
B10: GLS3000 S27eG one-arm antibody (antibody, human IgG1, kappa, L234A L235A, N297A, name in Kabat numbering)
heavy: B1 heavy
chain: B1 chain
light: B1 light with G28S, S32G
B11: GLS3000 S27eH one-arm antibody (antibody, human IgG1, kappa, L234A L235A, N297A, name in Kabat numbering)
heavy: B1 heavy
chain: B1 chain
light: B1 light with G28S, S32H
B12: GLS3000 S27eI one-arm antibody (antibody, human IgG1, kappa, L234A L235A, N297A, name in Kabat numbering)
heavy: B1 heavy
chain: B1 chain
light: B1 light with G28S, S32I
B13: GLS3000 S27eK one-arm antibody (antibody, human IgG1, kappa, L234A L235A, N297A, name in Kabat numbering)
heavy: B1 heavy
chain: B1 chain
light: B1 light with G28S, S32K
B14: GLS3000 S27eL one-arm antibody (antibody, human IgG1, kappa, L234A L235A, N297A, name in Kabat numbering)
heavy: B1 heavy
chain: B1 chain
light: B1 light with G28S, S32L
B15: GLS3000 S27eM one-arm antibody (antibody, human IgG1, kappa, L234A L235A, N297A, name in Kabat numbering)
heavy: B1 heavy
chain: B1 chain
light: B1 light with G28S, S32M
B16: GLS3000 S27eN one-arm antibody (antibody, human IgG1, kappa, L234A L235A, N297A, name in Kabat numbering)
heavy: B1 heavy
chain: B1 chain
light: B1 light with G28S, S32N
B17: GLS3000 S27eP one-arm antibody (antibody, human IgG1, kappa, L234A L235A, N297A, name in Kabat numbering)
heavy: B1 heavy
chain: B1 chain
light: B1 light with G28S, S32P
B18: GLS3000 S27eQ one-arm antibody (antibody, human IgG1, kappa, L234A L235A, N297A, name in Kabat numbering)
heavy: B1 heavy
chain: B1 chain
light: B1 light with G28S, S32Q
B19: GLS3000 S27eR one-arm antibody (antibody, human IgG1, kappa, L234A L235A, N297A, name in Kabat numbering)
heavy: B1 heavy
chain: B1 chain
light: B1 light with G28S, S32R
B20: GLS3000 S27eT one-arm antibody (antibody, human IgG1, kappa, L234A L235A, N297A, name in Kabat numbering)
heavy: B1 heavy
chain: B1 chain
light: B1 light with G28S, S32T
B21: GLS3000 S27eV one-arm antibody (antibody, human IgG1, kappa, L234A L235A, N297A, name in Kabat numbering)
heavy: B1 heavy
chain: B1 chain
light: B1 light with G28S, S32V
B22: GLS3000 S27eW one-arm antibody (antibody, human IgG1, kappa, L234A L235A, N297A, name in Kabat numbering)
heavy: B1 heavy
chain: B1 chain
light: B1 light with G28S, S32W
B23: GLS3000 S27eY one-arm antibody (antibody, human IgG1, kappa, L234A L235A, N297A, name in Kabat numbering)
heavy: B1 heavy
chain: B1 chain
light: B1 light with G28S, S32Y

Target: T1, CD3ε homodimer protein (human, UniProt P07766 23-126, limits assumed)
T1 construct: also called CD3 (CD3ε)
Assay: SPR Biacore T200, CD3ε homodimer on chip;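 further: Light-chain single-residue variant antibodies injected over amine-coupled CD3ε homodimer on a CM4 chip at 25 °C, bound amount divided by that of the GLS3000-containing antibody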

T1 sequence (P07766 23-126 limits assumed): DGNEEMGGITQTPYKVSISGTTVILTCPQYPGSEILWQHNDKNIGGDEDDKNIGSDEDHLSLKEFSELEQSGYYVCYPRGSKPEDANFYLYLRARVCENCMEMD

Row | Binder | ratio of amount bound vs unaltered GLS3000
1 | B1 | 1.03
2 | B2 | 1
3 | B3 | 1.1
4 | B4 | 0.99
5 | B5 | 1.1
6 | B6 | 1.03
7 | B7 | 0.69
8 | B8 | 0.76
9 | B9 | 1.32
10 | B10 | 1.04
11 | B11 | 1.23
12 | B12 | 1.07
13 | B13 | 1.59
14 | B14 | 1.17
15 | B15 | 1.23
16 | B16 | 1.16
17 | B17 | 1.26
18 | B18 | 1.1
19 | B19 | 1.58
20 | B20 | 0.97
21 | B21 | 1.08
22 | B22 | 1.55
23 | B23 | 1.2
